Patent US20060286112A1 (published 2006)
Changes are numbered by the printed parent chain. Each block holds one binder with its values, some of them ahead of it.

How the values were obtained:
[1] = biological target: T1, human VLA-1 (alpha 1/beta 1, CD49a/CD29) on IL-2 stimulated human PBMC / T cells (human, UniProt P56199 29-1179; P05556 21-798); experiment: cell-based or functional assay
[2] = biological target: T2, human CD49a I domain I11F (human, UniProt P56199 151-364, I11F); experiment: ELISA on secreted mutant I domain
T2 construct: domain: I domain; not shown: myc and His tags

[3] = biological target: T3, human CD49a I domain T204A (human, UniProt P56199 151-364, T204A); experiment: ELISA on secreted mutant I domain
T3 construct: domain: I domain; not shown: myc and His tags

[4] = biological target: T4, human CD49a I domain with residues 91-96 VQRGGR replaced by mouse GRRGGL (human, UniProt P56199 151-364, V91G; Q92R; R96L); experiment: ELISA on secreted mutant I domain
T4 construct: domain: I domain; also called V91G, Q92R, R96L; not shown: myc and His tags

[5] = biological target: T5, human CD49a I domain K142Q (human, UniProt P56199 151-364, K142Q); experiment: ELISA on secreted mutant I domain
T5 construct: domain: I domain; text prints KI42Q once; not shown: myc and His tags

[6] = biological target: T6, human CD49a I domain S162H (human, UniProt P56199 151-364, S162H); experiment: ELISA on secreted mutant I domain
T6 construct: domain: I domain; not shown: myc and His tags

[7] = biological target: T7, human CD49a I domain E66A (human, UniProt P56199 151-364, E66A); experiment: ELISA on secreted mutant I domain
T7 construct: domain: I domain; not shown: myc and His tags

[8] = biological target: T8, human CD49a I domain K88N (human, UniProt P56199 151-364, K88N); experiment: ELISA on secreted mutant I domain
T8 construct: domain: I domain; not shown: myc and His tags

[9] = biological target: T9, human CD49a I domain E48K (human, UniProt P56199 151-364, E48K); experiment: ELISA on secreted mutant I domain
T9 construct: domain: I domain; not shown: myc and His tags

[10] = biological target: T10, human VLA-1 α1 subunit (CD49a), full-length, on transfected CHO cells (human, UniProt P56199 29-1179); experiment: cell-based or functional assay
[11] = biological target: T1, human VLA-1 (alpha 1/beta 1, …); experiment: cell-based or functional assay; remark: listed apart in the source
[12] = biological target: T1, human VLA-1 (alpha 1/beta 1, …); experiment: cell-based or functional assay; remark: listed apart in the source
[13] = biological target: T10, human VLA-1 α1 subunit (CD49a), …; experiment: cell-based or functional assay; remark: listed apart in the source
[14] = biological target: T1, human VLA-1 (alpha 1/beta 1, …); experiment: cell-based or functional assay; remark: listed apart in the source

B1: 6.17 (antibody, V domains shown)
VH: EVQLVQSGAEVKKPGESLRISCKGSGYSVSSYWIGWVRQMPGKGLEWMGIIYPGDSDTRYSPSFQGQVTISADKSISTAFLQWISLKASDTAMYYCARLQGDCSGGSCYGHFDYWGQGTLVTVS
VL: EIVLTQSPGTLSLSPGERATLSCRASQTISSGYLAWYQQKPAQAPRLLIYVASRRATGIPDRFSGSGSGTDFTLTISRLEPEDFAVYYCQQYGSSSWTFGQGTTVEIK
notes: human IgG2 or IgG4
% adhesion of IL-2 activated T cells to collagen IV vs no antibody, 10 µg/ml, +PMA [1]: 22.5%
% adhesion of IL-2 activated T cells to collagen IV vs no antibody, 10 µg/ml, -PMA [1]: 64.1%
binding result [2]: binds
binding result [3]: binds
binding result [4]: no binding
binding result [5]: binds
binding result [6]: no binding
binding result [7]: binds
binding result [8]: binds
binding result [9]: binds
relative inhibition at an optimal concentration, CHO-VLA-1 adhesion to collagen IV [10]: > 80%
% adhesion of T cells to collagen IV vs no antibody, 0.5 nM mAb, no PMA [11]: 76.3%
% adhesion of T cells to collagen IV vs no antibody, 5 nM mAb, no PMA [11]: 22.3%
% adhesion of T cells to collagen IV vs no antibody, 0.5 nM mAb, 10 ng/ml PMA [12]: 93.7%
% adhesion of T cells to collagen IV vs no antibody, 5 nM mAb, 10 ng/ml PMA [12]: 63.7%
IC50, adhesion of CHO-VLA-1 cells to collagen IV [13]: 270 pM

B2: 6.18 (antibody, V domains shown)
VH: B1 VH with S30T, F80Y, I84S, S107T
VL: B1 VL with T28S, I29V, G32S, S94T
notes: human IgG2 or IgG4
% adhesion of IL-2 activated T cells to collagen IV vs no antibody, 10 µg/ml, +PMA [1]: 31.2%
% adhesion of IL-2 activated T cells to collagen IV vs no antibody, 10 µg/ml, -PMA [1]: 58.5%
binding result [2]: binds
binding result [3]: binds
binding result [4]: no binding
binding result [5]: binds
binding result [6]: no binding
binding result [7]: binds
binding result [8]: binds
binding result [9]: binds
relative inhibition at an optimal concentration, CHO-VLA-1 adhesion to collagen IV [10]: > 80%
% adhesion of T cells to collagen IV vs no antibody, 0.5 nM mAb, no PMA [11]: 85%
% adhesion of T cells to collagen IV vs no antibody, 5 nM mAb, no PMA [11]: 19.7%
% adhesion of T cells to collagen IV vs no antibody, 0.5 nM mAb, 10 ng/ml PMA [12]: 98.4%
% adhesion of T cells to collagen IV vs no antibody, 5 nM mAb, 10 ng/ml PMA [12]: 55.5%
IC50, adhesion of CHO-VLA-1 cells to collagen IV [13]: 190 pM

B3: 6.44 (antibody, V domains shown)
VH: QVQLQESGPGLVKPSQTLSLICTVSGGSISRGDSYWSWIRQHPGKGLEWIGYIYYSGSTFYNPSLKSRVTISVDTSKNQFSLKLSSVTAADTAVYYCAREDRIFGVVDYWGQGTLVTVSS
VL: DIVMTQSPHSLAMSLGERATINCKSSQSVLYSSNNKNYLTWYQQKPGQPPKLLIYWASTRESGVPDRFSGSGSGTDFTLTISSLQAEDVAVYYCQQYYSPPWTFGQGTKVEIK
notes: human IgG2 or IgG4
% adhesion of IL-2 activated T cells to collagen IV vs no antibody, 10 µg/ml, +PMA [1]: 23.7%
% adhesion of IL-2 activated T cells to collagen IV vs no antibody, 10 µg/ml, -PMA [1]: 49.2%
binding result [2]: binds
binding result [3]: binds
binding result [4]: no binding
binding result [5]: binds
binding result [6]: binds
binding result [7]: binds
binding result [8]: binds
binding result [9]: binds
relative inhibition at an optimal concentration, CHO-VLA-1 adhesion to collagen IV [10]: > 80%
% adhesion of T cells to collagen IV vs no antibody, 0.5 nM mAb, no PMA [11]: 70.7%
% adhesion of T cells to collagen IV vs no antibody, 5 nM mAb, no PMA [11]: 25%
% adhesion of T cells to collagen IV vs no antibody, 0.5 nM mAb, 10 ng/ml PMA [12]: 89.8%
% adhesion of T cells to collagen IV vs no antibody, 5 nM mAb, 10 ng/ml PMA [12]: 56.6%
IC50, adhesion of CHO-VLA-1 cells to collagen IV [13]: 80 pM

B6: 2.7 (antibody, V domains shown)
VH: EVQLVESGGGLVKPGGSLRLSCAASGFTFSNAWMSWVRQAPGKGLEWVGRIKRKTDGETTDYAAPVKGRFTISRDDSRNTLYLQMNSLKTEDTAVYYCTIYTYYYGMDVWGQGTTVTVSS
VL: DIQMTQSPSSLSASVGDRVTITCRASQSINNYLNWYQQKPGKAPKLLIYAASSLESGVPSRFSGSGSGTDFTLTISSLQPEDFATYYCQQSYSTPPTFGQGTKVEIK
notes: human IgG2 or IgG4; also called antibody 2.7
% adhesion of IL-2 activated T cells to collagen IV vs no antibody, 10 µg/ml, +PMA [1]: 18%
% adhesion of IL-2 activated T cells to collagen IV vs no antibody, 10 µg/ml, -PMA [1]: 30%
binding result [2]: binds
binding result [3]: binds
binding result [4]: no binding
binding result [5]: binds
binding result [6]: binds
binding result [7]: no binding
binding result [8]: binds
binding result [9]: binds
relative inhibition at an optimal concentration, CHO-VLA-1 adhesion to collagen IV [10]: > 80%
% adhesion of T cells to collagen IV vs no antibody, 0.5 nM mAb, no PMA [11]: 33.5%
% adhesion of T cells to collagen IV vs no antibody, 5 nM mAb, no PMA [11]: 12.1%
% adhesion of T cells to collagen IV vs no antibody, 0.5 nM mAb, 10 ng/ml PMA [12]: 85.4%
% adhesion of T cells to collagen IV vs no antibody, 5 nM mAb, 10 ng/ml PMA [12]: 34.8%
IC50, adhesion of CHO-VLA-1 cells to collagen IV [13]: 80 pM

Next, values leading:

% adhesion of IL-2 activated T cells to collagen IV vs no antibody, 10 µg/ml, +PMA [1]: 27.4%
% adhesion of IL-2 activated T cells to collagen IV vs no antibody, 10 µg/ml, -PMA [1]: 40.1%
binding result [2]: binds
binding result [3]: binds
binding result [4]: binds
binding result [5]: binds
binding result [6]: binds
binding result [7]: binds
binding result [8]: binds
binding result [9]: no binding
% adhesion of T cells to collagen IV vs no antibody, 0.5 nM mAb, no PMA [11]: 113%
% adhesion of T cells to collagen IV vs no antibody, 5 nM mAb, no PMA [11]: 66.5%
% adhesion of T cells to collagen IV vs no antibody, 0.5 nM mAb, 10 ng/ml PMA [12]: 96.6%
% adhesion of T cells to collagen IV vs no antibody, 5 nM mAb, 10 ng/ml PMA [12]: 91.9%
IC50, adhesion of CHO-VLA-1 cells to collagen IV [13]: 590 pM
B4: 7.7 (antibody, V domains shown)
VH: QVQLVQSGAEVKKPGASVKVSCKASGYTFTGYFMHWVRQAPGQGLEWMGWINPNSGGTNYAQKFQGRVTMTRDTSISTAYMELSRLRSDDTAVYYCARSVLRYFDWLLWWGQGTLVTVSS
VL: DIVMTQSPESLAVSLGERTTINCKSSQSVLFSSNNENHLAWYQQKPGQPPKLLIYWASTRESGVPDRFSGSGSGTDFTLTISSLQAEDVAVYYCQQYYITPCSFGQGTKLEIK
notes: human IgG2 or IgG4

binding result [2]: binds
binding result [3]: binds
binding result [4]: binds
binding result [5]: binds
binding result [6]: binds
binding result [7]: binds
binding result [8]: binds
binding result [9]: no binding
T cell adhesion to immobilized collagen IV, relative estimated IC50 [14]: > 5000 pM
IC50, adhesion of CHO-VLA-1 cells to collagen IV [13]: 1300 pM
B5: 3.40 (antibody, V domains shown)
VH: QVQLVESGGGVVQPGRSLRLSCAASGFTFSTYGMHWVRQAPGKGLEWVAVIWYDGSKKYYADSVKGRFAISRDNSKNTLYLQMNSLRAEDTAVYYCARDHTMVRGVINSYYYGMAVWGQGTTVTVSS
VL: SYELTQPPSVSVSPGQTASITCSGDRLGNKYACWYQQKTGQSPVLVIYQDSKRPSGIPERFSGSNSGNTATLTISGTQAMDEADYYCQAWDSSTVVFGGGTKLTVL
notes: human IgG2 or IgG4

T cell adhesion to immobilized collagen IV, relative estimated IC50 [14]: > 5000 pM
B7: 7.11 (antibody, V domains shown)
VH: QVQLQESGPGLVKPPETLSLTCTVSGGSISSHYWSWIRQPAGKGLEWIGRIYTSGSTNYNPPLKSRVTMSVDTSKNQFSLKLSSVTAADTAVYYCAREGYDFWSGYYNYYYGMDVWGQGTTVTVS
VL: EIVLTQSPGTLSLSPGERATLSCRASQSVISSYLAWYQQKPGQAPRLLIYGASSRATGIPDRFSGSGSGTDFTLTISRLEPEDFAVYYCQQYGSAFTFGGGTKVEIK

% adhesion of IL-2 activated T cells to collagen IV vs no antibody, 10 µg/ml, +PMA [1]: 38.4%
% adhesion of IL-2 activated T cells to collagen IV vs no antibody, 10 µg/ml, -PMA [1]: 40.9%
% adhesion of T cells to collagen IV vs no antibody, 0.5 nM mAb, no PMA [11]: 101%
% adhesion of T cells to collagen IV vs no antibody, 5 nM mAb, no PMA [11]: 76.6%
% adhesion of T cells to collagen IV vs no antibody, 0.5 nM mAb, 10 ng/ml PMA [12]: 96.7%
% adhesion of T cells to collagen IV vs no antibody, 5 nM mAb, 10 ng/ml PMA [12]: 86.8%
T cell adhesion to immobilized collagen IV, relative estimated IC50 [14]: > 5000 pM
IC50, adhesion of CHO-VLA-1 cells to collagen IV [13]: 1000 pM
B8: 10.1 (antibody, V domains shown)
VH: QVQLQQSGPGLVKPSETLSLTCTVSGASISSYYWSWIRQPAGKGLEWIGRIYASGSTNYNPSLKSRVTMSVDTSKSQFSLNLSSVTAADTAVYYCAREGWERLQDYYYYGLDVWGQGTTVTVSS
VL: EIVLTQSPGTLSLSPGERATLSCRASQSVSRNYLAWNQQKPGQAPRLLIYGASSRATGIPDRFSGSGSGTDFTLTISRLEPEDFAVYYCQQYGSSPLTFGGGTKVEIK

binding result [2]: binds
binding result [3]: binds
binding result [4]: no binding
binding result [5]: binds
binding result [6]: binds
binding result [7]: no binding
binding result [8]: binds
binding result [9]: binds
relative inhibition at an optimal concentration, CHO-VLA-1 adhesion to collagen IV [10]: > 80%
IC50, adhesion of CHO-VLA-1 cells to collagen IV [13]: 470 pM
B9: 2.19 (antibody, V domains shown)
VH: QVQLQESGPGLVKPSETLSLTCTVSGDSISSYYWSWIRQPPGKGLEWIGYVYYSGSTNYNPSLKSRVTMSVDTSKNQFSLKLSSVTAADTAVYYCARDLELYAFDIWGQGTMVTVSS
VL: B8 VL with S7F, A19V, R31S, N32T, L34V, A35V, N37Y, Y92H, L97W, G101Q
notes: human IgG2 or IgG4
